From patent US20160274129 come the findings set out here.

The target of data set [1] is T1, α-fructosyl-valyl-histidine.
T1 chain: VH

Data set [2] has as its target T2, α-fructosyl-valyl-histidyl-leucyl-threonyl-proryl-glutamic acid.
T2 chain: VHLTPE

Where “and” joins values, the source holds several entries; their conditions need not be identical. Equal entries are not always repeated.

B1: CFP-T7-H21 (protein)
chain: MTSNRADTRVIVVGGGGTIGSSTALHLVRSGYAPANITVLDTFEIPSAQSAGHDLNKIMGIDLRNKVDLQMSLEARQMWKEDELFQPFFHNTGRMDCEHTPEGIEKLKKLYQRLHDAGAGLEKTHAWLDNEDEILSKMPLLQRDQIQGWKAIWSQDGGWLAAAKAINAIGQFLKERGVKFGFGGAGSFKQPLFDDEGTTCIGVETADGTKYYADKVVLAAGAWSPTLVDLEDQCCSKAWVYAHIQLTPEEAAEYKGVPVVYNGEFGFFFEPDEFGVIKVCDEFPGFSRFKEHQPYGAPSPKRISVPRSHAKHPTDTYPDASEVSIKKAIATFLPRFQDKELFNRALCWCTDTADAALLMCEHPKWKNFILATGDSGHSFKILPNVGKYVVELIEGRLPEEMAYQWRWRPGGDALKSRRAAPPKDLADMPGWKHDPKL
On to B1, for which, in data set [1], the Specific activity (U/mg), 1 mM αFVH, purified enzyme is 4.05 U/mg. In addition, in data set [2], the Specific activity (U/mg), 1 mM αF6P, purified enzyme was 0.795 U/mg; the αF6P oxidation activity (crude enzyme; αFVH oxidation activity = 100) (relative (αFVH = 100)) came to 20.8; the αF6P/αFV was 0.0377 and 0.0372; the αF6P/αFVH was 0.196 and 0.208.

B2: CFP-T7-H20 (protein)
chain: MTSNRADTRVIVVGGGGTIGSSTALHLVRSGYAPANITVLDTFEIPSAQSAGHDLNKIMGIDLRNKVDLQMSLEARQMWKEDELFQPFFHNTGRMDCEHTPEGIEKLKKLYQKLHDAGAGLEKTHAWLDNEDEILSKMPLLQRDQIQGWKAIWSQDGGWLAAAKAINAIGQFLKERGVKFGFGGAGSFKQPLFDDEGTTCIGVETADGTKYYADKVVLAAGAWSPTLVDLEDQCCSKAWVYAHIQLTPEEAAEYKGVPVVYNGEFGFFFEPDEFGVIKVCDEFPGFSRFKEHQPYGAPSPKRISVPRSHAKHPTDTYPDASEVSIKKAIATFLPRFQDKELFNRALCWCTDTADAALLMCEHPKWKNFILATGDSGHSFKILPNVGKYVVELIEGRLPEEMAYQWRWRPGGDALKSRRAAPPKDLADMPGWKHDPKL
In data set [1], B2 yielded a Specific activity (U/mg), 1 mM αFVH, purified enzyme of 4.28 U/mg. Further, in data set [2], the Specific activity (U/mg), 1 mM αF6P, purified enzyme was 0.85 U/mg; the αF6P oxidation activity (crude enzyme; αFVH oxidation activity = 100) (relative (αFVH = 100)) came to 20.5; the αF6P/αFV is 0.0377 and 0.0389; the αF6P/αFVH was 0.205 and 0.198.

B3: CFP-T7-62D (protein)
chain: MTSNRADTRVIVVGGGGTIGSSTALHLVRSGYAPANITVLDTFEIPSAQSAGHDLNKIMGIDLRNKVDLQMSLEARQMWKEDELFQPFFHNTGRMDCEHTPEGIEDLKKQYQALHDAGAGLEKTHAWLDNEDEILSKMPLLQRDQIQGWKAIWSQDGGWLAAAKAINAIGQFLKERGVKFGFGGAGSFKQPLFDDEGTTCIGVETADGTKYYADKVVLAAGAWSPTLVDLEDQCCSKAWVYAHIQLTPEEAAEYKGVPVVYNGEFGFFFEPDEFGVIKVCDEFPGFSRFKEHQPYGAPSPKRISVPRSHAKHPTDTYPDASEVSIKKAIATFLPRFQDKELFNRALCWCTDTADAALLMCEHPKWKNFILATGDSGHSFKILPNVGKYVVELIEGRLPEEMAYQWRWRPGGDALKSRRAAPPKDLADMPGWKHDPKL
Turning to B3, the Specific activity (U/mg), 1 mM αFVH, purified enzyme in data set [1] was determined as 1.62 U/mg. For the same protein, in data set [2], the Specific activity (U/mg), 1 mM αF6P, purified enzyme came out at 0.018 U/mg; the “fold of specific activity on αF6P against PnFX (Amadoriase 26/Comparative Example 3)” value is given as 2 times (Amadoriase 26/Comparative Example 3) to 1,940 times (Amadoriase 25/Comparative Example 2); the αF6P/αFV worked out at 0.00113; the αF6P/αFVH was 0.00132.
